The values that follow come from US20070086998A1.

Experiment [1] has as its target HLA-DR on LG-2 cells (human). Description: cell-based or functional assay.
The target in experiment [2] is HLA-DR as expressed on the tumor cell line. Description: cell-based or functional assay.

L243 (antibody), sequence (VH): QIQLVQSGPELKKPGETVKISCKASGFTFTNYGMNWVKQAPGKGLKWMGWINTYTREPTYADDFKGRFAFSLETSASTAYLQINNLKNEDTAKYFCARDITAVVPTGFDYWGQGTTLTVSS
L243 (antibody), sequence (VL): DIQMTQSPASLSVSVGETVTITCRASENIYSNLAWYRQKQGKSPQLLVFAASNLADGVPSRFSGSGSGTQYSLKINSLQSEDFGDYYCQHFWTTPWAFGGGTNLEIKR

For the substance L243 (antibody), the % Killing by mAb; LG-2 (DR 1,1); 200 nM, 4 h in experiment [1] came to 79%. Moreover, in experiment [2], the % Killing by mAb; ARH-77 (DR 12); 200 nM, 4 h came to 88%; the % Killing by mAb; BJAB (DR 12,13); 200 nM, 4 h was found to be 53%; the % Killing by mAb; BONNA-12; 200 nM, 4 h turned out to be 92%; the % Killing by mAb; DOHH-2 (DR 1,2); 200 nM, 4 h stood at 29%. Besides, in experiment [2], the % Killing by mAb; EOL-1; 200 nM, 4 h is 22%; the % Killing by mAb; GRANTA-519 (DR 2,11); 200 nM, 4 h was found to be 83%; the % Killing by mAb; HC-1; 200 nM, 4 h turned out to be 88%; the % Killing by mAb; HD-MY-Z; 200 nM, 4 h stood at 35%. In experiment [2], this substance gave a % Killing by mAb; HDLM-2; 200 nM, 4 h of 77%; a % Killing by mAb; KARPAS-299 (DR 1,2); 200 nM, 4 h of 78%; a % Killing by mAb; KARPAS-422 (DR 2,4); 200 nM, 4 h of 25%; a % Killing by mAb; KM-H2; 200 nM, 4 h of 81%. Also, in experiment [2], the % Killing by mAb; L1236; 200 nM, 4 h amounted to 52%; the % Killing by mAb; L-363; 200 nM, 4 h came to 6%; the % Killing by mAb; L-428 (DR 12); 200 nM, 4 h stood at 82%; the % Killing by mAb; LP-1; 200 nM, 4 h is 12%. In experiment [2], this substance showed a % Killing by mAb; MHH-CALL-4 (DR 1,2); 200 nM, 4 h of 35%; a % Killing by mAb; MHH-PREB-1; 200 nM, 4 h of 3%; a % Killing by mAb; MN-60 (DR 10,13); 200 nM, 4 h of 46%; a % Killing by mAb; NALM-1 (DR 1,4); 200 nM, 4 h of 44%. In experiment [2], the % Killing by mAb; RAJI (DR 10,17); 200 nM, 4 h was determined as 69%; the % Killing by mAb; RPMI-8226; 200 nM, 4 h was 6%; the % Killing by mAb; SR-786 (DR 1,2); 200 nM, 4 h turned out to be 3%.
